Measurements as given in the nanobody polyreactivity screen of Harvey et al. (2022).

Assay: yeast display, Sf9 membrane polyspecificity reagent, FACS + sequencing; frameworks hold sequencing errors
In short: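 In a synthetic yeast display library (Saccharomyces cerevisiae BJ5465), nanobody expression was induced with galactose for 36–48 hours. FACS gates were set low and high (top ~1%) using anti-HA fluorescence for expression and streptavidin fluorescence for binding of the Sf9 membrane reagent. Each polyreactivity label is drawn from the gate of origin.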

| Sequence | polyreactivity (PSR sort gate) |
| --- | --- |
| QVQLVESGGGLVQAGGSLRLSCAASGSTFKAYVMGWYRQEPAKERELVAVISRSGGTTYYADSVKGRFTISRDNAKNTVYLQMNSLKPEDTAVYYCAAQWRYQYPESLESYYWGQGTQGTVSS | high polyreactivity |
| QVQLVESGGGLVQAGGSLRLSCAASGIIFGINAMGWYRQAPGKERELVATITSGGGTNYADSVKGRFTISRDNAKNTVYLQMNSLKPEDTAVYYCAKPTYRFYWGDFDYWGQGTQVTVSS | low polyreactivity |
| QVQLVESCGGLVQAGGSLRLSCDASGSIFIKKTMGWYRQAPGKEREMVAAISWSGGSTYYADSVKGRFTISRDNAKNTVYLQMNSLKPEDTAVYYCNAYYFWRTWFDTYDYWGQGTQVTVSS | high polyreactivity |
| QVQLVESGGGLVQAGGSLRLSCAASGGTILLYAMGWYRQAPGKERELVAGINSGGSTYYADSVKGRFTISRDNAKNTVYLQMNSLKPEDTAVYYCNARSTRYGGDYWGQGTQVTVSS | low polyreactivity |
| QVQLVESGGGLVQAGGSLRLSCAASGYIFNRYVMGWYRQAPGKERELVAAITWRGGTTYADSVKGRFTISRDNAKNTVYLLMNSLKPEDTAVYYCAARRYPFEYDYWGQGTQVTVSS | high polyreactivity |
| QVQLVESGGGLVQAGGSLRLSCAASGSTFRYYAKGWYRQAPGKERELVAAINYGGGRTYYADSVKGRFTISRDIAKNTVYLQMNSLKPEDTAVYYCATGYYYYRFYTYGYWGQGTQVTVSS | high polyreactivity |
| QVQLVESGGGLVQAGGSLRLSCAAYGITFPSYVMGWYRQAPGKERELVAAISWRGGSTYYADSVKGRFTISRDNAKNTVYLQMNSLKPEDTAVYYCAAEYLVWYTFYPKYDYWGQGTQVTVSS | high polyreactivity |
| QVQLEESGGGLVQAGGSLRLSCAASGFTFTDYALGWYRQAPGTERELVAVITYDSTYYADPVKGRFTISRDNAKNTVYLQMNSLNPEDTAVYFCAADSYDWGDFDYWGQGTQVTVSS | low polyreactivity |
| QVQLVESGGGLVQAGGSLRLSCAASGSTFDFNAMGWYRQAPGKERELVAAITGSDGNTYYADSVKGRFTISRDNAKNNVYLQMNTLTPEDTAVYYFAADFSWWSKYVVLYDYWGQGTQVTVSS | low polyreactivity |
| QVQLVESGGGLVQAGGSLRLSCAASGRTFVRYAMGWYRQAPGKERELVAAISTSGGNTYYADSVKGRFTISRDNAKNTVYLQMNSLKPEDTAVYYCAKDRGPNAKFDYWGQGTQVTVSS | low polyreactivity |
| QVQLVESGGGLVQAGGSLRLSCAASGSTFGIYSMGWYRQAPGKERELVAAISVRGGRTYYADSVKGRFTISRDNAKNTVYLQMNSLKPEDTAVYYCAPTWYWGNDYWGQGTQVTVSS | low polyreactivity |
| QVQLVESGGGLVQAGGSLRLSSAASGSTFSYYAMGWYRQAPGKDRELVAAITSSGGSTYYADSVKGRFTISRDNAKNTVYLEMNSLKPEDTEVYYCNTAYHVPYDYWGQGTQVTVSS | low polyreactivity |
| QVQLVESGGGLVQAGGSLRLSCAASGSTSSLYTMGWYKQAPGKERELVAAITVSGSRTYYADSVKGRFTISRDNAKNTVYLQMNSLKPEDTAVYYCNAYPYYLVRNMDSWGQGTQVTVSS | high polyreactivity |
| QVQLVESGGGLGQAGGSLRLSCAASGFTFWYYGRGWYRQAPGKERELVAAITSSGGRTSYADSVKGRFTISRDNAKNTVYLQMNSLKPEETADYYCAALYSYYSLYDDYDYWGQGTQVTVSS | high polyreactivity |
| QVQLVESGGGLVQAGGSLRLSCAASGGTIAYNAMGWYRQAPWKERELVAAISSSGGRTYYADSVKGRFTITRDNAKNTVYLQMNRLKPEDTAVYYCATPVTNGFDYWGQGTQVTVSS | high polyreactivity |
| QVQLVESGGGLVQAGGSLRLSCAASGITFNGNAMGWYRQAPGKERELVAAITRTGTDTSYADSVKGRFTISRDNAKNTVYLQMNSLKPEDTAVYYCAAPPYNGYRYGTTGYYWGQGTQVTVSS | low polyreactivity |
| QVQLVESGGGLVQAGGSLRLSCAASGFTFGRYTMGCYRQEPGKERELVAAISKSGSGTFYADSVKGRFTISRDNAKNTVYLQINSLKPEDTAVYYCAARYRHFGNQVRTSHSIMYYWGQGTQVTVSS | high polyreactivity |
| QVQLVESGGGLVQAGGSLRLSCAASGRIFYFNAMGWYRQAPGKERELVAAISGSGGDTYYADTVKGRFTISRDNAKNTVYLQMNCLKPEDTAVYYCAAEVYTWGQGTQVTVSS | low polyreactivity |
| QVQLVESGGGLVQAGGSLRLSCAASGRTSVVNAMGWYRQAPGKERELVAAITSGGSTHYADSVKGRFTISRDNAKNTVYLQMNSLKPEDTAVYYCNARDRRRTNLLDYWGQGTQVTVSS | low polyreactivity |
| QVQLVESGGGLVQAGGSLRLSCAASGRIFKVNAMGWYRQAPGKERELVAAITRGGRTYADSVKGRFTISRDNAKNTVYLQMNSLKPEDTAVYYCAADVLEGWFKRYYYWGQGTQVTVSS | high polyreactivity |
| QVQLVESGGGLVQAGGSLRLSCAASGSIFSYYAMGWYRQAPGKERELVSANTSGDGTNYADSVKGRFTISRDNAKNTVYLQMNILKPDDTAVYYCAADAVDSYWREDYWGQGTQVTVSS | low polyreactivity |
| QVQLVESGGGLVQAGGSLRLSCAASGRTLRLYVMGWYRQAPGKERELVAAISRSGGRTYYADSVKGRFTISRDNATNTVYLQMNSLKPEDTAVYYCAADSGRYGYDYWGQGTLVTVSS | high polyreactivity |

| Sequence | polyreactivity (PSR sort gate) |
| --- | --- |
| QVQLVESGGGLVQAGGSLRLSCAASGYTFQKYGMGWYRQAPGNERELVAAITRSSGNTYYADSVKGRFTISRDNAKNTVYLQMNSLKPEDTAVDYCAAYYWGGVKYNYWGQGTQVTVSS | high polyreactivity |
| QVQLVESGGGLVQAGGSLRLSCAASGSIFEWYAMGWYRQAPGKERELVAAINSGGSTYYADSVKGRFTISRDNAKNTVYLQMNSLKPEDTAVYYCNADTLLQDRLGDWYDYDYWGQGTQVTVSS | low polyreactivity |
| QVQLVESGGGLVQAGGSLRLSCAASGSTFTAYVMGWYRQAPGKERELVAAISRSGGRTYYADSVKGRFTISRDNAKNTVYLQMNSLKPEDTAVYYCAARSGPLAYDYWGQGTQVTVSS | high polyreactivity |
| QVQLVESGGGLVQAGGSLRLSCAASGSIFYYYAMARYRPAPGKERELVASITSSGGTTSYADSVKGRFRISRDNAKNTVYLQMISLKPEDTAVYYCNAQVYRYRIGYDYWGQGTQVTVSS | low polyreactivity |
| QVQLVESGGGLVQAGGSLRLSCAASGSIYQYNAMGWYRQAPGKERELVAAISSRGGITYYADSVKGRFTISRDNAKNTVYLQMNSLKPEDTAVYYCAAEGYYSEVRWYEYWGQGTQVTVSS | high polyreactivity |
| QVQLVETGGGLVQAGGSLRLSCAASGATFNANGMGWYRQAPGKERELVAAISQRAGRTYYADSVKGRFTISRDNAKNTVYLQMNSLKPEDTAVYYCAARYLGGYYFRYYYWGQGTQVTVSS | high polyreactivity |
| QVQLVESGGCLVQAGGSLRLSCAASGFTFGPYAMGWYRQARGKERELVATLRSGDSTNYADSVKGRFTISRDNAKNTVYLQMNSVKPDDTAVYYCAVSYLSTMGRSRYEYWGQGTQVTVSS | low polyreactivity |
| QVQLEESGGGLVQAGGSLRLSCAASGRIIYSNGMGWYRQAPGKERELVAAISSGGSTYYADSVKGRFTISRDNAKNTVYLQMNSLKPEDTAVYYCAADIDYERDRYDYWGQGTQVTVSS | low polyreactivity |
| QFQLVESGGGLVQAGGSLRLSCAASGLIFTANAMGWYRQAPGKERELVASITWSGDSTYYADSVKGRFTISRDNAKNTVYLQMNSLKPEDSAVYYCNARPVYTYVTYDGNYWGQGTQVTVSS | low polyreactivity |
| QVQLVESGGGLVQAGGSLRLSCAASGITFKGYTMGWYRQAPGKEREFVAAISWGGGRTYYADSVKGRFTISRDNAKNTVYLQMNSLKPEDTAVYYCNGAPYTRALQGEFDYWGQGTQVTVSS | high polyreactivity |
| QVQLVESGGGLVQAGGSLRLSCAASGRISGRNAMGWYRQAPGKERELVAVITRGDTNYADSVKGRFTISRDNAKNTVYLQMNSLKPEDTAVYYCAKEPLASGWGYDYWGQGTQVTVSS | high polyreactivity |
| QVQLVESGGGLVQAGGSLRLSCAASGFYYGIGWYRQAPGTERELVAVITRGGSTNYADSVKGRFTISRDNAKNTVYLQMISLKPEDTAVYYCAARLYWAYRYGSWGQGSQVTVSS | high polyreactivity |
| QFQHVESGGGLDQARGRLRLSCAASGYTFAKYTMGSYRQAPGKERELVAAISRGGSTTYADSVKGRFTISRDNAKNTVYLQMNSLKPEDTAVYDCAASGTKREDGYSLGYPRAGDYWGQGTQVTVSS | low polyreactivity |
| QVQLVESGGGLVQAGGSLRLSCAASGRIFEDNGMGWYRQAPGKEREFVATISWDGDRTYYADSVKGRFTISRDNAKNTVYFQMNSLKPEDTAVYYCNADLPLWPFRGYEYWGQGTQVTVSS | low polyreactivity |
| QVQLVESGGGLVQAGGSLRLSCAASGIILLFYVMGWYRQAPGKERELVASINGRSARTYYADSVKGRFTISRDNAKNTVYLQMNSLKPEDTAVYYCAAGYRYAGNGQIANTGGYYWGQGTQVTVSS | low polyreactivity |
| QVQLVESGGGLVQAGGSLRLSCAASGIIFRYYTMGWYRQAPGTERELVAAITSGGSTNYADSVKGRFTISRDNAKNTVYLQMNSLKPEDTAVYYCRQFSVWGYDYWGQGTQVTVSS | high polyreactivity |
| QVQLVESGGGLVQAGGSLRLSCAASGSIFVRNAMGWYRQAPGKERELVAAISGSGGRTYYADSVKGRFTISRDIAKNTVYLQMNSLKPEDTAVYYCARVPSGQLEYDYWGQGTQVTVSS | high polyreactivity |
| QVQLVESGGGLVQAGGSLRLSCAASGSTFIGYAMGWYRQAPGKEWELVAAISWSGGRTYYADSVKGRFTISRDNEKNTVYLQMNSLKPEDTAVYYCAASYYGCSARYDTLGIYEYWGLGTQVTVSS | high polyreactivity |
| QVQLVESGGGLVQAGGSLRLSCAASGITFTVNAMGWYRQAPGKERELVAAISNDGSTYYADSVKGRFTISRDNAKNTVYLQMNSLKPEDTAVYYCSADTWDDFGPYGYDYWGQGTQVTVSS | low polyreactivity |
| QVQLVESGGGLVQAGGSLRLSCAASGIIFYDNAMGWYRQAPGKERALVAALTWTGSSTYYADSVKGRFTISRDNAKNTVYLQMNSLKPEDTAVSYCNARASYGHQGRLGYARLYYWGQGTQVTVSS | high polyreactivity |
| QVQLVESGGGLVQAGGSLRLSCAASGSITSNVMGWYRQAPGKEMELVAAISRGGGSTYYADSVKGRFTISRDNAKNTVYLQMNSLKPEDTAVFYCAADVWGGLLPGYDYWGQGTQVTVSS | high polyreactivity |
